Data on 13 molecules can be found in publication PMC3554631, “Structural Basis of a Histone H3 Lysine 4 Demethylase Required for Stem Elongation in Rice” (PLoS Genetics, 2013).

Assay [1] addresses FA-J3NCZ, FLAG:HA-tagged JmjN-JmjC-zinc finger region of JMJ703 (amino acids 113 to 700) (rice) (UniProt Q53WJ1). Briefly: SPR; J3NCZ (FA-J3NCZ) with different concentrations of peptide; set-up for this protein not told in the methods.
For assay [2], the target named is c-JMJ703, catalytic core domain of JMJ703 (amino acids 139 to 498) (rice) (UniProt Q53WJ1). Briefly: SPR; BIAcore 3000, 25°C; c-JMJ703 amine-coupled to a CM5 chip; peptides injected at various concentrations at 10 µL/min for 2 min in 10 mM HEPES pH 7.5, 150 mM NaCl, 0.005% Tween20; reference flow cell subtracted.
Assay [3] deals with T1, c-JMJ703, catalytic core domain of JMJ703 (amino acids 139 to 498) (rice, UniProt Q53WJ1 139-498).
T1 construct: JMJ703, rice JmjC domain-containing histone H3K4 demethylase; amino acids 139 to 498, covering the JmjN domain (A139-K199), long beta-hairpin (D200-T271), mixed domain (L272-V377) and JmjC domain (L378-A498); Cloned into pET-28a with BamHI and XhoI; also called J3NC; catalytic core of JMJ703; source: E. coli Rosetta (DE3), purified (Ni-NTA, thrombin cleavage, Hitrap Q anion exchange)
The description is as above. The following applies: both partners purified.

Assay [4] addresses T2, FA-J3NCZ, FLAG:HA-tagged JmjN-JmjC-zinc finger region of JMJ703 (amino acids 113 to 700) (rice, UniProt Q53WJ1 113-700).
T2 construct: JMJ703, rice; JmjN-JmjC-zinc finger region between amino acids 113 and 700; the only production of J3NCZ that the methods tell is the FLAG:HA-tagged one from tobacco cells (vector pFA121); source: tobacco leaf cells (Agrobacterium infection), purified with Anti-FLAG M2 magnetic beads
T2 sequence (looked up): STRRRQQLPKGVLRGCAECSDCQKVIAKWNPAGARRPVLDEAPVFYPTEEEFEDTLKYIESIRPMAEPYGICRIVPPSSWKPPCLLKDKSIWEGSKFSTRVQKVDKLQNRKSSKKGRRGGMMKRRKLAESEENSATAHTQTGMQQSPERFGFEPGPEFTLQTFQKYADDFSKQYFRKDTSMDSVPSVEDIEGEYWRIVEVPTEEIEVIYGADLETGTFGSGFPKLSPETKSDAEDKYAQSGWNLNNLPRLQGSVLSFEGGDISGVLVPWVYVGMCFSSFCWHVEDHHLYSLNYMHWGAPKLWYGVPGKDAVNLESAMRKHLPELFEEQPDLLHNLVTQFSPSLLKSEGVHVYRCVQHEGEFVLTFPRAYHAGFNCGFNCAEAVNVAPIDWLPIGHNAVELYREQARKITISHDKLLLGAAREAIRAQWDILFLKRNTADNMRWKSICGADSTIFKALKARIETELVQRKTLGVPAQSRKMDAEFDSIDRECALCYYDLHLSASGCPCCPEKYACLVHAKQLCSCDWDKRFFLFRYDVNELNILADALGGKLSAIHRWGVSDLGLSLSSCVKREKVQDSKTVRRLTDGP
Briefly: SPR; J3NCZ (FA-J3NCZ) with different concentrations of peptide; set-up for this protein not told in the methods. The following applies: both partners purified. In general terms: Surface plasmon resonance follows binding to a sensor surface in real time, without labels.

For assay [5], the system named is H3K4me2. Briefly: H3K4 demethylation assay in tobacco cells of JMJ703 substitution mutants, H3K4me2. It is filed as cell-based. To be noted: mutant expressed transiently in tobacco cells, immunostaining of nuclei, at least 30 nuclei per transfection. As to the method: (§1) The cDNA fragment of the J3NCZ region was amplified using primers FAJ3NCZ-F and FAJ3NCZ-R and then cloned into pFA121 vector modified from pBI121 (GenBank: AF485783.1), in which GUS was replaced by 2×FLAG∶2×HA tag. The pFA121-J3NCZ plasmid was transferred into Agrobacterium tumefaciens strain EHA105 cells for tobacco infection with the help of Agrobacterium cells harboring P19 plasmids. For in vivo histone demethylation assay, tobacco infection and nuclei isolation were performed as previously described. The immunostaining protocol was modified from http://sites.bio.indiana.edu/~pikaardlab. Briefly, the nucleus solution was placed on a poly-lysine coated slide, air dried, and then refixed with 4% formaldehyde in KPBS (1.28 M NaCl, 20 mM KCl, 80 mM Na2HPO4, 20 mM KH2PO4, pH7.2) containing 1% Triton X-100 for 20 min. After 3 washes with KPBS-1% Triton, slides were blocked with blocking solution (1% BSA in KPBS-1% Triton) and incubated at 37°C for 30 min. The blocking solution was washed off with KPBS-1% Triton and the slides were incubated with both anti-HA and histone méthylation specific antibodies diluted in blocking solution to 1∶300 at 4°C overnight. After washing with KPBS, slides were blocked and incubated with fluorescent-labeled antibodies at 37°C for 2 h. After washing with KPBS thrice, nuclei were stained with 5 µg/mL 4,6-diamidino-2-phenylindole (DAPI), coated with a drop of VECTASHIELD Mounting Medium (H-1000, Vector Laboratories), and then covered with a coverslip followed by confocal microscope (Leica) detection. In vitro histone demethylation assays were performed as previously described. FA-J3NCZ was purified after overexpression with Anti-FLAG M2 magnetic beads according the manufacturer's instruction (Sigma).
(§2) Supplementary file pgen.1003239.s006.tif: Figure S6 Demethylation assays for JMJ703 substitution mutants that have been produced based on the structural data. The mutant names are labeled at the top left corner of each panel. Image panels from left to right are staining by DAPI, anti-HA and anti-methylated histones, respectively. Bar = 10 µm. At least 30 nuclei that expressed JMJ703 per transfection were observed and imaged. (TIF) Click here for additional data file.

The subject of assay [6] is H3K4me1. Description: H3K4 demethylation assay in tobacco cells of JMJ703 substitution mutants, H3K4me1. It is filed as cell-based. To be noted: mutant expressed transiently in tobacco cells, immunostaining of nuclei, at least 30 nuclei per transfection. How it is done:
as §1, §2

Assay [7] relates to H3K4me3. Briefly: H3K4 demethylation assay in tobacco cells of JMJ703 substitution mutants, H3K4me3. It is filed as cell-based. To be noted: mutant expressed transiently in tobacco cells, immunostaining of nuclei, at least 30 nuclei per transfection. How it is done: as §1, §2

Substitutions are numbered along the chain they refer to. In names and notes the source's numbering stands. Where no end group is shown, it is not given here. Me3 = trimethyl

By Kd is commonly meant the constant that tells how readily two partners part at equilibrium. Read a low Kd as a tighter complex. Take H3K4me1 peptide: the equilibrium dissociation constant (Kd) in assay [1] was determined as 12.6 µM; in assay [2], 28.9 µM.

Regarding H3K4me2 peptide, the Kd in assay [1] is 15.1 µM; in assay [2] it was 19.3 µM.

For H3K4me0 peptide, in assay [2], the Kd is 76.6 µM.

Regarding ARTK(Me3)QTARKS [H3K4me3 peptide (ARTKme3QTARKS)], the Kd in assay [3] was determined as 30.1 µM; in assay [4], 15.9 µM.

B1: L447A: JMJ703 substitution mutant, residue conserved in H3K4 demethylases (protein, UniProt Q53WJ1 1-1238, looked up, variant L447A)
Lysine-specific demethylase …: MMGVTTTLNEDTEPSIPPGFGPFATLPLWGIHNDAKPAVTHSTPVQALQSIRKDSEECQPSAAVSRSDTPCSTSGTQTCRKSLRNRPPIDYSRFEHISDEDSDVEIVEKDVSSTRRRQQLPKGVLRGCAECSDCQKVIAKWNPAGARRPVLDEAPVFYPTEEEFEDTLKYIESIRPMAEPYGICRIVPPSSWKPPCLLKDKSIWEGSKFSTRVQKVDKLQNRKSSKKGRRGGMMKRRKLAESEENSATAHTQTGMQQSPERFGFEPGPEFTLQTFQKYADDFSKQYFRKDTSMDSVPSVEDIEGEYWRIVEVPTEEIEVIYGADLETGTFGSGFPKLSPETKSDAEDKYAQSGWNLNNLPRLQGSVLSFEGGDISGVLVPWVYVGMCFSSFCWHVEDHHLYSLNYMHWGAPKLWYGVPGKDAVNLESAMRKHLPELFEEQPDLLHNAVTQFSPSLLKSEGVHVYRCVQHEGEFVLTFPRAYHAGFNCGFNCAEAVNVAPIDWLPIGHNAVELYREQARKITISHDKLLLGAAREAIRAQWDILFLKRNTADNMRWKSICGADSTIFKALKARIETELVQRKTLGVPAQSRKMDAEFDSIDRECALCYYDLHLSASGCPCCPEKYACLVHAKQLCSCDWDKRFFLFRYDVNELNILADALGGKLSAIHRWGVSDLGLSLSSCVKREKVQDSKTVRRLTDGPRRSYMSQASAVSLVSSSTSNEQKDEGNKIMKIASPQTNNVCPSVEQRKSENISPLKEPCVRNELSCTTNSDSNGLQYNGGLGGHKGSAPGLPVSSSPSFSSNVATRPISTSSVSMKIVQGLVASKSCIQASSRTGDSRSLLGEHHNRSPAMIHDGTNMKSSLESSNNSCRLIASDYNATPCHSSKDQVLVTPGTNASVVTLKDSSQVHSASSQQFVRTGPWTQSASHEASSPSTSALKPSLDPPAMKNLYGGFTQGSAHPGPPSFSNQQPNDGRLQRTSESLPGVEARARGHPTVTAQPALEIHSRNGGAQKGPRIANVVHRFKCSVEPLEIGVVLSGRLWSSSQAIFPKGFRSRVKYFSIVDPIQMAYYISEILDAGMQGPLFMVKLENCPGEVFINLSPTKCWNMVRERLNMEIRRQLNMGKSNLPTLQPPGSVDGLEMFGLLSPPIVQAIWARDRDHICTEYWRSRPHVLIEDPNNRHMLSQGPPLLALRGLIQRANRDELQVLRSLMTNSNNLDDSSRQQAAHIIEEEIAKQLC
Consider B1, for which the H3K4me2 demethylation activity entry in assay [5] is on record as “no”. For the same molecule, in assay [6], the H3K4me1 demethylation activity entry is reported as “no”. Also, in assay [7], the H3K4me3 demethylation activity entry is reported as “no”.

B2: K412A: JMJ703 substitution mutant, α-ketoglutaric acid-binding residue (protein, UniProt Q53WJ1 1-1238, looked up, variant K412A)
Lysine-specific demethylase …: B1 Lysine-specific demethylase … with K412A, A447L
As to B2, the H3K4me2 demethylation activity entry in assay [5] is listed as “no”. Also, the H3K4me1 demethylation activity result in assay [6] is “no”. Also, in assay [7], the H3K4me3 demethylation activity result is reported as “no”.

B3: E396A: JMJ703 substitution mutant, methyl group-binding residue (protein, UniProt Q53WJ1 1-1238, looked up, variant E396A)
Lysine-specific demethylase …: B1 Lysine-specific demethylase … with E396A, A447L
With B3, the H3K4me2 demethylation activity entry in assay [5] is on record as “no”. Also, the H3K4me1 demethylation activity result in assay [6] is “no”. Also, in assay [7], the H3K4me3 demethylation activity result is “no”.

B4: N404A: JMJ703 substitution mutant, α-ketoglutaric acid-binding residue (protein, UniProt Q53WJ1 1-1238, looked up, variant N404A)
Lysine-specific demethylase …: B1 Lysine-specific demethylase … with N404A, A447L
As to B4, the H3K4me2 demethylation activity result in assay [5] was “yes”. Further, in assay [6], the H3K4me1 demethylation activity result is recorded as “yes”. Further, the H3K4me3 demethylation activity result in assay [7] was “yes”.

B5: G376A: JMJ703 substitution mutant, methyl group-binding residue (protein, UniProt Q53WJ1 1-1238, looked up, variant G376A)
Lysine-specific demethylase …: B1 Lysine-specific demethylase … with G376A, A447L
On to B5, for which the H3K4me2 demethylation activity entry in assay [5] is recorded as “no”. Moreover, the H3K4me1 demethylation activity entry in assay [6] is listed as “no”. Moreover, the H3K4me3 demethylation activity result in assay [7] was “no”.

B6: N496A: JMJ703 substitution mutant, methyl group-binding residue (protein, UniProt Q53WJ1 1-1238, looked up, variant N496A)
Lysine-specific demethylase …: B1 Lysine-specific demethylase … with A447L, N496A
B6: the H3K4me2 demethylation activity entry in assay [5] is listed as “yes”. In assay [6], the H3K4me1 demethylation activity entry was “no”. For the same molecule, the H3K4me3 demethylation activity result in assay [7] is reported as “yes”.

B7: Y383A: JMJ703 substitution mutant, methyl group-binding residue (protein, UniProt Q53WJ1 1-1238, looked up, variant Y383A)
Lysine-specific demethylase …: B1 Lysine-specific demethylase … with Y383A, A447L
As for B7, the H3K4me2 demethylation activity entry in assay [5] is on record as “yes”. In addition, the H3K4me1 demethylation activity entry in assay [6] is given as “no”. For the same molecule, in assay [7], the H3K4me3 demethylation activity result is “no”.

B8: Y321A: JMJ703 substitution mutant, α-ketoglutaric acid-binding residue (protein, UniProt Q53WJ1 1-1238, looked up, variant Y321A)
Lysine-specific demethylase …: B1 Lysine-specific demethylase … with Y321A, A447L
With B8, in assay [5], the H3K4me2 demethylation activity result was “yes”. The H3K4me1 demethylation activity result in assay [6] was “no”. Also, in assay [7], the H3K4me3 demethylation activity entry is given as “yes”.

B9: A494S: JMJ703 substitution mutant, methylation state-specificity residue (protein, UniProt Q53WJ1 1-1238, looked up, variant A494S)
Lysine-specific demethylase …: B1 Lysine-specific demethylase … with A447L, A494S
In the case of B9, the H3K4me2 demethylation activity result in assay [5] is listed as “no”. For the same molecule, the H3K4me1 demethylation activity result in assay [6] is recorded as “no”. Further, the H3K4me3 demethylation activity result in assay [7] is on record as “yes”.
